From the supplement of paper PMC9732359
± gives the uncertainty stated by the source.

Experiment: protein stability index of a GFP-peptide fusion (yeast GPS) (PSI 1-4); higher = more stable; sorted into four equal gates, so the index is relative within each strain
Outline: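 The protein stability index combines read frequencies across sorting gates, each weighted by its gate number and then summed. To obtain those frequencies, a pooled yeast library of GFP fusions to tiled 17-residue yeast protein peptides, on a plasmid also expressing Cherry, was grown to mid-log phase in leucine-free medium. The cells were sorted into four equal gates by GFP/Cherry ratio before plasmid amplification by PCR and Illumina sequencing.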

Sequence	protein stability index (doa10∆)	protein stability index (pdr5∆)	protein stability index (san1∆)	protein stability index (ubr1∆)
TIGAIFLNHAFDYMNRY [CDC53]	2.04 ± 0.065	2.1 ± 0.066	1.78 ± 0.076	1.89 ± 0.046
AKKTSTSVDGKKRSKVR [HTB2]	3.05 ± 0.19	2.98 ± 0.23	2.96 ± 0.27	3.31 ± 0.075
KAFKNNSSKYYINEKES [SMC4]	2.54 ± 0.12	2.42 ± 0.07	2.27 ± 0.083	1.72 ± 0.064
MTAAVTSSNIVLETHES [RPT6]	2.65 ± 0.094	2.78 ± 0.057	2.79 ± 0.081	2.48 ± 0.059
KAIRGMVSHKTARGKAA [RPL16B]	1.94 ± 0.056	2.01 ± 0.057	2.14 ± 0.087	2.62 ± 0.039
MMEEIINVVIKASRKSV [ECM29]	1.76 ± 0.073	1.75 ± 0.068	2.04 ± 0.21	1.53 ± 0.12
LKIFKIFCIDLEVFHHF [SRB8]	1.57 ± 0.069	2.23 ± 0.1	1.67 ± 0.1	2.53 ± 0.092
IRNCATEAGFFAIRDDR [RPT4]	2.82 ± 0.062	3.24 ± 0.079	2.78 ± 0.097	2.91 ± 0.042
YIEEKHPTIYESLPQYV [POP4]	2.33 ± 0.044	2.39 ± 0.048	1.91 ± 0.052	2.06 ± 0.045
PEYLAMYGLTMEWPKDM [ITC1]	2.45 ± 0.074	2.34 ± 0.11	2.23 ± 0.14	2.14 ± 0.072
KLSDNISICMILCGIQE [YDL116W/NUP84]	2.23 ± 0.074	1.86 ± 0.083	2.62 ± 0.12	2.06 ± 0.11
GFIFTSMILEAISTDKI [RRI2]	1.35 ± 0.082	1.27 ± 0.072	1.26 ± 0.13	1.51 ± 0.083
LMEEIESLKKELQIFKT [YIL149C/MLP2]	2.94 ± 0.094	2.96 ± 0.068	2.82 ± 0.072	3.08 ± 0.055
TPNVREEKQKSYKFPRG [PUP1]	3.29 ± 0.13	2.74 ± 0.12	3.13 ± 0.095	
VLVKWTRTIKQNNFHVL [RGR1]		1.3 ± 0.27		
EIIPLQDYYIIGANIYQ [MED6]	2.97 ± 0.064	3.07 ± 0.052	3.16 ± 0.04	3.1 ± 0.044
NMYTSTQKTELEIDNKD [SIR4]	3.04 ± 0.069	3.01 ± 0.081	3.04 ± 0.068	3.06 ± 0.065
GGNGPEDFQQHEQIRRK [RPO26]	3.3 ± 0.1	3.39 ± 0.072	3.09 ± 0.089	3.44 ± 0.083
IRKDPNNLSNQLETLTG [CSE2]	2.87 ± 0.11	2.91 ± 0.098	2.68 ± 0.11	2.77 ± 0.095
VINPQQLLKGLSLSFSK [DSN1]	3.2 ± 0.11	3.1 ± 0.089	2.54 ± 0.086	3.12 ± 0.1
KFMTNSTAFVPTIEYVQ [ARP9]	2.22 ± 0.062	2.65 ± 0.048	2.83 ± 0.076	2.62 ± 0.041
VGLVSPSFMLKHHQLFY [RPN1]	1.64 ± 0.079	1.7 ± 0.083	1.32 ± 0.16	1.4 ± 0.062
SPMLYKVPDISSDGQLK [BRR2]	2.52 ± 0.047	2.56 ± 0.045	2.61 ± 0.054	2.58 ± 0.03
KLKNENTDLKDIIQGNP [PCI8]	2.82 ± 0.051	3.21 ± 0.084	2.75 ± 0.14	3.25 ± 0.089
TVRLVNLFSSTGFKGLL [SRB2]	2.31 ± 0.073	2.73 ± 0.055	2.76 ± 0.06	2.9 ± 0.039
ETERLISQSQLGKFKNI [SIN4]	3.09 ± 0.13			
QELAKSIRSRRPYQVNV [PRE1]	2.92 ± 0.14	2.88 ± 0.078	3.2 ± 0.14	3.16 ± 0.078

Sequence	protein stability index (doa10∆)	protein stability index (pdr5∆)	protein stability index (san1∆)	protein stability index (ubr1∆)
YIEDFLLVIGGNQRKIL [YJR042W/NUP85]	1.59 ± 0.051	1.86 ± 0.05	1.62 ± 0.078	1.71 ± 0.042
KTGTKPAAVFAETLKHD [RPL4B]	2.17 ± 0.078	1.95 ± 0.18	1.63 ± 0.16	2 ± 0.15
GNGITNTTTRVIPQVEV [SNF5]	3.02 ± 0.15	2.58 ± 0.095	1.98 ± 0.21	2.49 ± 0.1
TNLKMKRKWSYVLYAKI [RRP43]	1.71 ± 0.058	2.37 ± 0.042	1.75 ± 0.16	2.09 ± 0.15
TEHLTELSDNEENFEAT [YCG1]	2.87 ± 0.14	3.15 ± 0.16	3.54 ± 0.099	2.96 ± 0.12
SNDKFVHVQLLINLKIS [SRB8]	1.51 ± 0.042	1.82 ± 0.045	1.6 ± 0.064	1.61 ± 0.034
YIRKLISSGLLYLQDSN [SRB8]	1.63 ± 0.068	1.21 ± 0.093	1.18 ± 0.11	1.11 ± 0.061
AVDLEHHDYRSYYGIVC [RRP6]	2.5 ± 0.067	2.77 ± 0.049	2.37 ± 0.083	2.97 ± 0.038
DMDGVDFNQAFEGTDDN [BRN1]	2.97 ± 0.094	3.04 ± 0.091	3.35 ± 0.094	3.17 ± 0.072
SNRCIVFSKKEPFPHSK [CSN12]	2.58 ± 0.052	2.85 ± 0.047	2.81 ± 0.065	2.72 ± 0.043
DWQKEDGIFSSKTDNIE [YMR153W/NUP53]			3.22 ± 0.15	2.86 ± 0.2
GSELSSKIRKIHIQETQ [SIR3]	2.61 ± 0.069	2.54 ± 0.084	2.58 ± 0.075	2.68 ± 0.056
NNGSSDKSLDSSNASFN [MED1]	2.92 ± 0.13	3.04 ± 0.15	3.08 ± 0.22	2.98 ± 0.12
PKTGKVERSEAISKKDL [SEC65]	3.63 ± 0.16	3.46 ± 0.081	3.33 ± 0.14	3.23 ± 0.073
EIHPITFPPEVLARISP [RRP43]	2.05 ± 0.041	2.57 ± 0.054	2.4 ± 0.049	1.94 ± 0.041
ANNNINSASSAPTPAAP [SWI1]	2.99 ± 0.064	2.88 ± 0.077	3.05 ± 0.078	2.97 ± 0.064
VNADDDDFMHSETREKE [RPB4]	2.7 ± 0.089	2.61 ± 0.06	2.35 ± 0.089	1.99 ± 0.062
ILHVRAQYCYKNGLYQE [SRP72]	2.86 ± 0.073	2.94 ± 0.095	3.1 ± 0.068	3.25 ± 0.057
AELQSNLQVELLSEHDD [YGL100W/SEH1]	2.61 ± 0.083	2.95 ± 0.065	2.62 ± 0.07	2.87 ± 0.061
KDQLPDLESMGLTQLYK [MED7]	2.85 ± 0.07	3.08 ± 0.071	2.87 ± 0.077	3.13 ± 0.069
RFNAKVSMVKRAIDSLI [CDC53]	1.86 ± 0.071	2.12 ± 0.074	2.17 ± 0.12	2 ± 0.042
KMVIAELLPHYPFVTND [YJR042W/NUP85]	2.83 ± 0.09	2.75 ± 0.092	2.87 ± 0.052	2.99 ± 0.073
LVNGFSQSQQKLLKEKV [MED2]	2.03 ± 0.055	2.27 ± 0.068	2.41 ± 0.066	2.61 ± 0.052
VILKQILQILDQDELVQ [SWP82]	2.54 ± 0.051	2.52 ± 0.082	2.57 ± 0.063	2.5 ± 0.06
SSLEELLLKDQQTAKKL [ECM29]	2.82 ± 0.091	2.99 ± 0.077	2.92 ± 0.1	2.95 ± 0.058
TARVMGGLKNGVLYQGN [DIS3]	3.19 ± 0.069	3.3 ± 0.071	3.06 ± 0.047	3.13 ± 0.056
QELLNAETLCFTVNVLY [RPN3]	3.11 ± 0.075	2.75 ± 0.087	2.94 ± 0.065	2.87 ± 0.062
